The values below come from US20250258178A1 (SHIONOGI, published 2025).

Experiment [1] has as its target T1, human histidine-rich glycoprotein (HRG), purified from human plasma (human, UniProt P04196 19-525).
T1 construct: also called human purified HRG; human purified HRG protein
T1 sequence: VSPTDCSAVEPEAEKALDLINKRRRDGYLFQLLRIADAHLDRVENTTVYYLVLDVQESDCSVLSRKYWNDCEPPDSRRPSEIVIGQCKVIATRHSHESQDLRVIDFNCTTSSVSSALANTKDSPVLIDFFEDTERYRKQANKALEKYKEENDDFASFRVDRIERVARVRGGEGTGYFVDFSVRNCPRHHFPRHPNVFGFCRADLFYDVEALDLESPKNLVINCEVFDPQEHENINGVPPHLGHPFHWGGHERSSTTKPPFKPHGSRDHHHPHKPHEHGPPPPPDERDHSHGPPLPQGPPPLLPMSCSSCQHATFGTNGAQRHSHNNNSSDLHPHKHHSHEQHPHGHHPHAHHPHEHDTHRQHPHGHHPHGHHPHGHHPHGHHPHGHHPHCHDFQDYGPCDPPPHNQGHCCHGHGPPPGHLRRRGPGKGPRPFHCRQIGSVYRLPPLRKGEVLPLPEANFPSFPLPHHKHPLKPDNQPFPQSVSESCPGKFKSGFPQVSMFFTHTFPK
Description: sandwich ELISA, HRG captured by solid phase 58-5C. As for the experimental part: (§1) The capture antibody solution was dispensed at 25 μL per well into 384-well Maxisorp plates (NUNC), and the plates were incubated at room temperature for 3 hours. The plates were washed twice with 120 μL of washing solution per well (0.05% Tween 20-containing PBS). A blocking solution (1% BSA-containing PBS) was dispensed at 30 μL per well, and the plates were incubated at room temperature for 3 hours. The blocking solution was removed followed by dispensing the standard substance for evaluation at 20 μL per well (n=2), and the plates were incubated at room temperature for 3 hours. After washing the plates four times with the washing solution as described above, the solution of each detector antibody was dispensed at 10 μL per well, followed by dispensing a horseradish peroxidase-streptavidin solution (0.05 μg/mL) at 10 μL per well, and the plates were incubated at room temperature for 1 hour. After washing the plates four times with the washing solution as described above, a chromogenic substrate solution (TMB (3,3′,5,5′-tetramethylbenzidine)) was dispensed at 20 μL per well followed by incubating the plates at room temperature for 10 minutes, then a reaction stop solution 0.5 M H₂SO₄ was added at 20 μL/well, and the absorbance at 450 nm was measured.
(§2) The results regarding the evaluation of combinations chosen from 21 types of anti-HRG monoclonal antibodies are shown in Table 1. In Table 1, the absorbance at a wavelength of 450 nm of each combination was determined as follows: less than 1.0 OD: −, 1.0 OD or more and less than 2.0 OD: +, 2.0 OD or more and less than 3.0 OD: ++, and 3.0 OD or more: +++. The combinations of antibodies which could construct a sandwich ELISA system having enough level of absorbance change were 86 sets evaluated as ++ or +++ in Table 1.
On the technique in general: In an ELISA, binding on a coated surface is turned into a signal by an enzyme label.

Experiment [2] concerns the target T1, human histidine-rich glycoprotein …. Description: sandwich ELISA, HRG captured by solid phase 93-4C. The protocol:
as §1, §2

Experiment [3] has the same target. Description: sandwich ELISA, HRG captured by solid phase 32-4C. The protocol:
as §1, §2

For experiment [4] the target is unchanged. Description: sandwich ELISA, HRG captured by solid phase 81-2C. As for the experimental part: as §1, §2
Experiment [5] shares this target. The experiment in a line: sandwich ELISA, HRG captured by solid phase 14-6F. The protocol:
as §1, §2

For experiment [6] the target is unchanged. The experiment in a line: sandwich ELISA, HRG captured by solid phase 31-1H. The protocol:
as §1, §2

The target is the same in experiment [7]. The experiment in a line: sandwich ELISA, HRG captured by solid phase 65-3A. The protocol:
as §1, §2

For experiment [8] the target is unchanged. Description: sandwich ELISA, HRG captured by solid phase 75-2D. The protocol: as §1, §2
For experiment [9] the target is unchanged. Description: sandwich ELISA, HRG captured by solid phase 42-10D. As for the experimental part:
as §1, §2

Experiment [10] has the same target. Description: sandwich ELISA, HRG captured by solid phase 88-2E. As for the experimental part: as §1, §2
The target is the same in experiment [11]. The experiment in a line: sandwich ELISA, HRG captured by solid phase 35-3G-10C. The protocol: as §1, §2
Experiment [12] shares this target. The experiment in a line: sandwich ELISA, HRG captured by solid phase 67-8A-5F. The protocol: as §1, §2
Experiment [13] shares this target. The experiment in a line: sandwich ELISA, HRG captured by solid phase 69-1A. As for the experimental part: as §1, §2
Experiment [14] has the same target. Description: sandwich ELISA, HRG captured by solid phase 19-1C. The protocol: as §1, §2
Experiment [15] shares this target. The experiment in a line: sandwich ELISA, HRG captured by solid phase 3-4E. The protocol: as §1, §2
Experiment [16] shares this target. The experiment in a line: sandwich ELISA, HRG captured by solid phase 40-10G. As for the experimental part:
as §1, §2

The target is the same in experiment [17]. The experiment in a line: sandwich ELISA, HRG captured by solid phase 6-12A-10B-9G. The protocol: as §1, §2
Experiment [18] has the same target. Description: sandwich ELISA, HRG captured by solid phase 50-6C-2A. The protocol:
as §1, §2

For experiment [19] the target is unchanged. The experiment in a line: sandwich ELISA, HRG captured by solid phase 94-7A-3C-3D. The protocol: as §1, §2
The target is the same in experiment [20]. The experiment in a line: sandwich ELISA, HRG captured by solid phase 13-2G. The protocol: as §1, §2
Experiment [21] shares this target. Description: sandwich ELISA, HRG captured by solid phase 9-1F. The protocol:
as §1, §2

B1: anti-HRG monoclonal antibody 67-8A-5F (antibody, V domains shown)
VH: EVQLQESGPGLVKPSQSLSLTCTVTGYSITSDYAWNWIRQFPGNKLEWMGYISYSGSTSYNPSLKSRISITRDTSKNQFFLQLNSVTTEDTATYYCASASYRYAWFAYWGQGTLVTVSA
VL: DIQMTQTTSSLSASLGDRVTISCRASQDISNYLNWYQQKPDGTVKLLIYYTSRLLSGVPSRFSGSGSGTDYSLTISNLEQEDIATYFCQQGNTLPTFGGGTKLEIK
notes: Mouse hybridoma monoclonal
With B1, the “absorbance at 450 nm (OD450)” value in [1] was 2 to 3 od; in experiment [2] it was 2 to 3 od; in experiment [5], 2 to 3 od; in experiment [7] it was 1 to 2 od; in [8], at least 3 od; in [15], at least 3 od. Moreover, the “absorbance at 450 nm (OD450)” value in experiment [16] and in experiment [19] was 1 to 2 od each time. In addition, the “absorbance at 450 nm” value in [3], in experiment [4], in [6], in [9], in experiment [10] and in experiment [11] was below 1 OD in each case. The “absorbance at 450 nm” value in [12], in experiment [13], in experiment [14], in experiment [17], in experiment [18] and in [20] was below 1 OD throughout. For the same molecule, in experiment [21], the “absorbance at 450 nm” value is below 1 OD.
